In patent publication US20180282403A1, “AGENTS FOR REDUCING THE ACTIVITY OF GDF15” (GENAGON THERAPEUTICS AB, priority 2015, published 2018):

Target: T1, GDF15 (Homo sapiens, UniProt Q99988)
T1 construct: purchased Abcam
T1 sequence (Q99988 197-308 limits assumed): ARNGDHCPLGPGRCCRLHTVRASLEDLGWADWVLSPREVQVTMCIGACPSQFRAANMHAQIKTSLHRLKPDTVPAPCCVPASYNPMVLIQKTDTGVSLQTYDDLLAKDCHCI
Test: Pepstar peptide array: GDF15 binding to 15-mers of extracellular loop2 (ECD3) of QRFPR
Settings: amino acid walk and alanine scan of 15-mers; FIG. 12
Source text: In order to determine the key amino acids and a minimal epitope present in the third extracellular domain of QRFPR (extracellular loop 2) we designed a Pepstar peptide array, purchased from JPT peptides. In short the array included complete coverage of the extracellular loop2 of QRFPR, divided into 15-mers. Peptides of this length (15-mers) were selected based on recommended length by the manufacturer, based on factors such as efficiency of synthesis, purity and yield by FMOC chemistry. The 15-mers were either varied according to amino acid walk, single or double alanine scan. Each set was analysed in triplicates. GDF15 was diluted into PBS-T (0.05% Tween-20) and incubated under mild agitation on an orbital shaker overnight at +4 C. Washes was done under agitation on a Sky line orbital shaker DOS-10L, ELMI.
Primary antibodies against GDF15 were added to wells with prior GDF15 incubation and to adjacent control wells where GDF15 had been omitted (only PBS-T) and incubated for 1 hr RT under agitation on orbital shaker. After repeated washes fluorophore-conjugated secondary antibodies were added, and after final washes the array was analysed on a G2502 Microarray scanner, Agilent Technologies. Fluorescence values from technical controls and control wells (no GDF15) were subtracted and resulting values in triplicate was analysed in Excel and Prism.

GDF15 binding to immobilised QRFPR ECD3 peptides: essential for GDF15 binding
Sequence: FLYEKEHIC (listed as Homo sapiens) [SEQ ID NO:11]
